Publication PMC11111093

Target: HA-ADAP (UniProt O15117)
Test: co-IP; HEK293T co-transfected with HA-ADAP and Flag-RIG-I or Flag-tagged RIG-I truncations, lysates 48 h after transfection; anti-HA immunoprecipitation, anti-Flag blot

Chain of UniProt O15117 (O15117 whole entry, the tested form may be a part): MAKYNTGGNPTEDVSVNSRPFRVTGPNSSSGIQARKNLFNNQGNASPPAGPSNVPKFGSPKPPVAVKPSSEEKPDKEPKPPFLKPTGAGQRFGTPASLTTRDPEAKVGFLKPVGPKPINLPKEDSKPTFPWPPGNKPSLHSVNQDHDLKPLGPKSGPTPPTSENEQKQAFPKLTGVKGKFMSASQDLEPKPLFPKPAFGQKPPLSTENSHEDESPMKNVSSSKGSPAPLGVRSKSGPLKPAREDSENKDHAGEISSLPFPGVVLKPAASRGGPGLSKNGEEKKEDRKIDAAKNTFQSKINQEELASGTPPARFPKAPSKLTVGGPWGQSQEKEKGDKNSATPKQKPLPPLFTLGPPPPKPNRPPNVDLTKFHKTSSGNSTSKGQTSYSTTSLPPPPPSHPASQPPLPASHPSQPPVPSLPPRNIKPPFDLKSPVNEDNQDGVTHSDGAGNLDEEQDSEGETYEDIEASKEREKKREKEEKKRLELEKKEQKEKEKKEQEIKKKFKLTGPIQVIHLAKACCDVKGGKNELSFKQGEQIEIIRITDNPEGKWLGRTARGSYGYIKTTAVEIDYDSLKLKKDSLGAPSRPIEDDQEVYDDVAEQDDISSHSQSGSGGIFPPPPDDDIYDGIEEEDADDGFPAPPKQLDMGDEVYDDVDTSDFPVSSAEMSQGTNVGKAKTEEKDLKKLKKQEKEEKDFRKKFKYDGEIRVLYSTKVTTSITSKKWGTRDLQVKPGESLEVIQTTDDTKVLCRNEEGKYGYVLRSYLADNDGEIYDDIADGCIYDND

percent decrease in binding compared to wild-type RIG-I: 60%
Substance: Flag-RIG-I helicase domain (aa 239-734) (from UniProt O95786 239-734) (domain or fragment)
